Test results published in publication PMC4613707.

How the values were obtained:
FLAG–TSP5 (human) = FLAG–TSP5 (human) (UniProt P49747); test: SDS/PAGE under non-reducing and reducing conditions with immunoblot; FLAG-tagged proteins immunoprecipitated with anti-FLAG M2 on rProtein G agarose from conditioned media of transfected COS7 cells, washed in Tris-buffered saline with 2 mM CaCl2, eluted by boiling in SDS sample buffer with or without 100 mM DTT; oligomers formed in the cells
FLAG–TSP-5-1C (human) = test: as above
[1] = target: FLAG–mRFP–TSP-5-1C (human); test: SDS/PAGE under non-reducing and reducing conditions with immunoblot; mRFP-tagged proteins collected with RFP-Trap_A beads from conditioned media of transfected COS7 cells, eluted by boiling in SDS sample buffer with or without 100 mM DTT; immunoblot for RFP (and FLAG, result not shown); oligomers formed in the cells

FLAG–TSP5, P49747 21-757 (natural protein; other documents disagree on this pair), sequence (P49747 21-757): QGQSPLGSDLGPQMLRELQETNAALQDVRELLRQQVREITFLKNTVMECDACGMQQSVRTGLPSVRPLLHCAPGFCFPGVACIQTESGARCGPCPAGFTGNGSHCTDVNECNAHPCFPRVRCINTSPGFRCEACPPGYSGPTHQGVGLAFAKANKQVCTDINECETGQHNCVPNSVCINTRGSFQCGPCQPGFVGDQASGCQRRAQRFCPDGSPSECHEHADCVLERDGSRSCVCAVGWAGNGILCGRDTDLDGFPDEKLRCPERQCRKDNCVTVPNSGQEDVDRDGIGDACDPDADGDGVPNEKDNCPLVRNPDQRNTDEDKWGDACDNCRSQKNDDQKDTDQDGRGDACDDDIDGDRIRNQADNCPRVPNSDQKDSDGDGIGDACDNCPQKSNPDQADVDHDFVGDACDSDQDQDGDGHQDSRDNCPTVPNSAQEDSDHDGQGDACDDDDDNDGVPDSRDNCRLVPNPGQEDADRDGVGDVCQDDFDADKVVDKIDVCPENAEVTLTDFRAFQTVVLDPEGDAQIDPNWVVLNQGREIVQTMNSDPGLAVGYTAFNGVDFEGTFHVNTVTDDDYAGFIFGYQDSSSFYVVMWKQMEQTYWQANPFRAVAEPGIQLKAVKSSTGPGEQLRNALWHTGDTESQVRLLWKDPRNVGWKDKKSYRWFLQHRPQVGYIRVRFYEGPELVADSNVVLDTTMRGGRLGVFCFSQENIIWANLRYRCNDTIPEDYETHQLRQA

**Q.** How did the stoichiometry N (FLAG–TSP5 (human)) turn out when “FLAG–TSP5, P49747 21-757 (natural protein; other documents disagree on this pair)” was run?
**A.** 5

**Q.** With FLAG–TSP-5-1C as the substance, how does the stoichiometry N (FLAG–TSP-5-1C (human)) read?
**A.** 5

**Q.** For FLAG–mRFP–TSP-5-1C, which stoichiometry N [1] is on record?
**A.** 5
